Patent US20140271478A1 (University of California, published 2014)
Numbering of substitutions follows the chain as printed. Values belong to the binder of their own block, whether it stands above or below them.

Target: T1, mouse integrin β8 (mouse, UniProt Q0VBD0 22-767)
T1 construct: whole, on cells; also called mouse β8; itgb8
T1 sequence (looked up): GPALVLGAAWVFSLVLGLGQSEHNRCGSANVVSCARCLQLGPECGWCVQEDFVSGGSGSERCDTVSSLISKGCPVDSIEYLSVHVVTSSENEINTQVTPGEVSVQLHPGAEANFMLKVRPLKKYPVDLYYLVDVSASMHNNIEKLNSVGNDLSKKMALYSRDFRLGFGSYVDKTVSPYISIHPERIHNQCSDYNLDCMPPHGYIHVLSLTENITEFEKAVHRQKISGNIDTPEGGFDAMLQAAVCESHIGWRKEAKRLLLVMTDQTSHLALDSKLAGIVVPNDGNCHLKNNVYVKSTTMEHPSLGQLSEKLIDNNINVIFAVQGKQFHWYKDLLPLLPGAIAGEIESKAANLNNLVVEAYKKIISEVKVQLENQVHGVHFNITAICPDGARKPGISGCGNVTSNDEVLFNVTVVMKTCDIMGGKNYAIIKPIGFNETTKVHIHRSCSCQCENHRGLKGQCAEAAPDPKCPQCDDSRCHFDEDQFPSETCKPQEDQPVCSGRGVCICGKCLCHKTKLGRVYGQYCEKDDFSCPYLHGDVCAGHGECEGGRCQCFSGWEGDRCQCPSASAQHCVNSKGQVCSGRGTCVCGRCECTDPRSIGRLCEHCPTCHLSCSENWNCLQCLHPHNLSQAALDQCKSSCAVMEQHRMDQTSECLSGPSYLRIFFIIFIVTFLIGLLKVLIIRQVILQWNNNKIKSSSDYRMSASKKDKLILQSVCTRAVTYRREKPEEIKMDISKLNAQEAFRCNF
Assay: cell surface staining, flow cytometry

binding result: no binding
B1: 14E5 antibody (antibody, V domains shown)
VH: EVQLQQSGAELMKPGASVKISCKATGYTFSTYWIEWIKQRPGHGLEWIGHILPGSVITNYNEKFKGKAAITADTSSNTSYMQLSSLTSEDSAVYYCARWGWDSYWGQGTLVTVSS
VL: DIEMTQSPSSLSASLGDRVTISCSTSQDISSSLNWYQQKPDGTVTLLIYYTSNLHSGVPSRFSGSGSGTDYSLTISNLEPEDIATYYCQQYSKLPYTFGGGTKLEIKR
notes: Mouse hybridoma antibody; also called hybridoma clone 14E5

binding result: no binding
B2: 11E8 antibody (antibody, V domains shown)
VH: EVQLQQSGPELMKTGASVKISCKATGYTFSSYWIEWVKQRPGHGLEWIGDILPGSGTTNYNEKFKGRATVTADRSSNTAYMQLSSLTYGDSAVYYCATWGWDTYWDQGTSVTVSS
VL: B1 VL with E3V, T25A, D28G, S31N, S32Y, T45K, N53S, K93N
notes: Mouse hybridoma antibody
